We go through 2 molecules from US20200157212A1 (Pfizer, published 2020).

By Kd is commonly meant the free concentration of one partner at which half of the binding sites on the other are occupied at equilibrium, for simple one-to-one binding. Read a high Kd as a looser complex.

Assay [1] has as its target T1, Human ROBO2 overexpressed on HEK293 cells (human, UniProt Q9HCK4 22-1378).
T1 construct: also called ROBO2 cells; native ROBO2
T1 sequence: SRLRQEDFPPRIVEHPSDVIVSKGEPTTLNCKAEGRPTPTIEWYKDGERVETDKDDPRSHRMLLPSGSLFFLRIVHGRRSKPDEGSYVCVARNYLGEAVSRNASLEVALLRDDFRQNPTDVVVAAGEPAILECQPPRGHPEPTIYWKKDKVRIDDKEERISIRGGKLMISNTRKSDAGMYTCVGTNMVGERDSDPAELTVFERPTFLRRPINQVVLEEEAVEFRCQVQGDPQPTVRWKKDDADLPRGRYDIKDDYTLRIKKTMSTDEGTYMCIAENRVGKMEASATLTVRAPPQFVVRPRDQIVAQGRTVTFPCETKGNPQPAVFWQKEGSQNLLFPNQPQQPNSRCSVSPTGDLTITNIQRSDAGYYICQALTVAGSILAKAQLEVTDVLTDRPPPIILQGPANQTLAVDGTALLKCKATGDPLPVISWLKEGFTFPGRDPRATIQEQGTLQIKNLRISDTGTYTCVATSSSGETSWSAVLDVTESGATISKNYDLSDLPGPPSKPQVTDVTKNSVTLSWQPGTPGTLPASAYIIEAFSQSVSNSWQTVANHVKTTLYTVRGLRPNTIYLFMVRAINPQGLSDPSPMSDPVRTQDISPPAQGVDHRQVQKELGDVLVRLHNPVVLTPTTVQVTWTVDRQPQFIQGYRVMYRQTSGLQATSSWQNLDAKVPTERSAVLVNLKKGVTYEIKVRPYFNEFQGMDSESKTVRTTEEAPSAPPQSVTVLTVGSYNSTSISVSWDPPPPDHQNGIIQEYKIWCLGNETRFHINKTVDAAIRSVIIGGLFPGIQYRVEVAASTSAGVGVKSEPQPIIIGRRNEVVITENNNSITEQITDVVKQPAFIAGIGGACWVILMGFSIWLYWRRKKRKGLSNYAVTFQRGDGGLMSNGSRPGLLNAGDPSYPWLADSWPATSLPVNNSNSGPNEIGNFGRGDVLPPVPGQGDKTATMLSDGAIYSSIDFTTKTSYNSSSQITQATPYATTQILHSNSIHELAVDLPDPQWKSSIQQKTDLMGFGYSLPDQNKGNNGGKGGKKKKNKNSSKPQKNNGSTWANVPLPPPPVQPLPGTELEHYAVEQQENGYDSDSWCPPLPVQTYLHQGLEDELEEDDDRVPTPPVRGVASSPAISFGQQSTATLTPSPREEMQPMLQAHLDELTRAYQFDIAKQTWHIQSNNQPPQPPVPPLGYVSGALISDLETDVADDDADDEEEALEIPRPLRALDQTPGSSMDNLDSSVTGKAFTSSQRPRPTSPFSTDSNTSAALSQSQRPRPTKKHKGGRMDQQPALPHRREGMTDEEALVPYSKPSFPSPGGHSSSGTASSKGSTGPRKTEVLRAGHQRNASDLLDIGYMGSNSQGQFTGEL
Put plainly: flow cytometry, Geo MFI ROBO2/ROBO1 HEK293 cells, 0.1 µg/ml. The method, then: Binding of the antibodies was detected using a secondary fluorochrome conjugated anti-human IgG F(ab′)₂ antibody and samples were analyzed on a Fortessa cytometer (BD Biosciences). The fold ROBO2 selectivity was calculated as the geometric mean fluorescence intensity (Geo MFI) with ROBO2 cells/Geo MFI with ROBO1 cells. A fold change higher than 3 was considered to be ROBO2 specific (Table 2, Fold Selectivity). Some affinity matured clones had increased ROBO1 reactivity, for example Abcs 55, CTI-R2-10 and CTIR2-13.
HTRF assays were run with 5 nM d2-labeled SLIT2-N and antibodies were added at 1 nM. […] Antibodies derived from chain (Abcs series) or CDR shuffling (CTIR-2 series) were evaluated in 11-point, 5-fold dilution series with a top concentration of 1500 nM, N.T. = not tested; ^cFold selectivity was calculated as Geometric Mean Fluorescent Intensity (Geo MFI) of ROBO2/Geo MFI of ROBO1 binding. […] Outcomes: results are listed in order of assays listed in the table (left to right), I.A. = Improved Affinity

The target in assay [2] is T2, Human ROBO2 Ig1-Ig2-His (human, UniProt Q9HCK4 31-220).
T2 construct: the His tag is named only in the SPR paragraphs; the Octet and ELISA paragraphs print 'ROBO2 Ig1-Ig2' without a tag; also called ROBO2 Ig1-2; Human ROBO2 Ig 1,2
T2 sequence: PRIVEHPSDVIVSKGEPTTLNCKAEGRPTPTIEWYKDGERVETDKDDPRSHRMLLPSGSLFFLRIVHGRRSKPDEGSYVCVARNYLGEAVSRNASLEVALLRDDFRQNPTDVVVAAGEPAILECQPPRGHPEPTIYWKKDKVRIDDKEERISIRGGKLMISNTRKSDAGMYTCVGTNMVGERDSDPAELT
In words: Octet (BLI).

For assay [3], the target named is T2, Human ROBO2 Ig1-Ig2-His. Put plainly: Octet method and SPR method.
Assay [4] addresses T2, Human ROBO2 Ig1-Ig2-His. Put plainly: SPR, Biacore T200, Abcs35 immobilized on CM5 chip, ROBO2 Ig1-Ig2-His as analyte. The method, then:
[…] Association and dissociation were followed over time.
Based upon several criteria, Abcs25 and Abcs35 were selected for further characterization. Using flow cytometry, improvement in the binding EC₅₀ to human ROBO2 relative to the parental 93H2 was evaluated. Starting at 6.7 nM, 11-point, 3-fold dilution series were made for each antibody and used to stain HEK293 overexpressing human ROBO2 as described above for the ROBO2 fold selectivity (Example 2). […] In addition to measuring improved binding to human ROBO2, it was important to ensure that high affinity binding to both cynomolgus monkey ROBO2 and rat ROBO2 was maintained. Using HEK293 cells overexpressing either cynomolgus monkey ROBO2 or rat ROBO2, the relative dose-dependent binding of 93H2, Abcs25 and Abcs35 was evaluated as described above. High affinity binding to both cynomolgus monkey and rat ROBO2 was maintained in Abcs25 and Abcs35 (Table 4). […] Briefly, Abcs35 was immobilized to 300 resonance units (RU) on a CM5 chip. Association of ROBO2 Ig1-Ig2-His (ROBO2) was measured over 5 minutes and dissociation was followed for a period of 10 minutes.

The target of assay [5] is T2, Human ROBO2 Ig1-Ig2-His. In words: Octet and SPR, against the parental antibody.

Bounds are passed on as bounds.

B1: 93H2 (antibody, human IgG1, kappa, V domains shown)
VH: EVQLVQSGAEVKKPGASVKVSCKASGYTFTGYYMHWVRQAPGQGLEWMGWINPNSGATNFPQKFQGRVTMTRDTSITTAYMDLSRLRSDDTAVYYCARESGDDAFDIWGQGTMVTVSS
VL: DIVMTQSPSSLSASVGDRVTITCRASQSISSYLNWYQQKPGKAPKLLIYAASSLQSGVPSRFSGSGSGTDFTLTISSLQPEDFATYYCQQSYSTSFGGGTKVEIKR
notes: also called parental 93H2; 93H2 mAb
With B1, the “Fold Selectivity for ROBO2/ROBO1” value in assay [1] is > 100 fold. Also, the affinity with Human ROBO2 Ig1-Ig2-His [2], expressed as Kd, was 37 nM.

B2: Abcs35 (antibody, human IgG1, kappa)
heavy: EVQLVQSGAEVKKPGASVKVSCKASGYTFTGYYMHWVRQAPGQGLEWMGWINPKNGDTEFPQKFQGRVTMTRDTSITTAYMDLSRLRSDDTAVYYCARESGDDAFDIWGQGTMVTVSSASTKGPSVFPLAPSSKSTSGGTAALGCLVKDYFPEPVTVSWNSGALTSGVHTFPAVLQSSGLYSLSSVVTVPSSSLGTQTYICNVNHKPSNTKVDKKVEPKSCDKTHTCPPCPAPEAAGAPSVFLFPPKPKDTLMISRTPEVTCVVVDVSHEDPEVKFNWYVDGVEVHNAKTKPREEQYNSTYRVVSVLTVLHQDWLNGKEYKCKVSNKALPAPIEKTISKAKGQPREPQVYTLPPSREEMTKNQVSLTCLVKGFYPSDIAVEWESNGQPENNYKTTPPVLDSDGSFFLYSKLTVDKSRWQQGNVFSCSVMHEALHNHYTQKSLSLSPGK
light: DIVMTQSPSSLSASVGDRVTITCRASQSISSYLNWYQQKPGKAPKLLIYAASSLQSGVPSRFSGSGSGTDFTLTISSLQPEDFATYYCQQSVGLFFGGGTKVEIKRTVAAPSVFIFPPSDEQLKSGTASVVCLLNNFYPREAKVQWKVDNALQSGNSQESVTEQDSKDSTYSLSSTLTLSKADYEKHKVYACEVTHQGLSSPVTKSFNRGEC
notes: fully human IgG1; VH of Ab96 with VL of Ab123
On to B2, for which the Kd with Human ROBO2 Ig1-Ig2-His [3] was 0.279 nM; with Human ROBO2 Ig1-Ig2-His [4], 0.268 nM. Besides, the fold affinity improvement in the assay with Human ROBO2 Ig1-Ig2-His [5] is ~300 fold.
